Consider two molecules from patent publication US11660340B2, “Combination therapy using T cell redirection antigen binding molecule against cell having immunosuppressing function” (CHUGAI SEIYAKU KABUSHIKI KAISHA, priority 2015, dated 2023).

For one assay, the system named is CT26.WT cells. The experiment in a line: Combined use of mCTLA4/mCD3 and gemcitabine, CT26.WT cell-transplanted model. The format is in vivo. The settings on record: final measurement point; mCTLA4/mCD3 25 μg/mouse day 9, gemcitabine 120 mg/kg day 8, tail vein; n=5; FIG. 19. The protocol: BALB/cA mice and C57BL/6N mice were purchased from Charles River Laboratories Japan, Inc. The CT26.WT cells or the CT26/hGPC3 cells were transplanted subcutaneously to BALB/cA mice, and the LL/2 (LLC1) cells or the LLC1/hGPC3 cells were transplanted subcutaneously to C57BL/6N mice. Models were established when the average volume of the transplanted tumors reached approximately 100 mm^3 to 200 mm^3.
The volume of the transplanted tumor was calculated using the following equation: Tumor volume (mm^3)=major axis (mm)×minor axis (mm)×minor axis (mm)/2
As the pharmaceutical agents to be administered for the combined use test, the anti-mouse CTLA4/anti-mouse CD3 bispecific monoclonal antibody (mCTLA4/mCD3) was prepared at 0.125 mg/mL in PBS (−), and a pyrimidine analog (antimetabolite), gemcitabine (Gemzar: Eli Lilly Japan) was prepared at 12 mg/mL in physiological saline solution (Otsuka Pharmaceutical).
To evaluate the effects of combined use of the anti-mouse CTLA4/anti-mouse CD3 bispecific monoclonal antibody (mCTLA4/mCD3) and gemcitabine, the CT26.WT cell-transplanted model was used and given through the tail vein gemcitabine at 120 mg/kg eight days after transplantation and […] at 25 μg/mouse nine days after transplantation.
Antitumor effects were evaluated from the tumor volumes calculated using the equation shown in (2) of Example 1. […]

Another assay addresses T1, mFcgRII (Mus musculus, UniProt P08101).
T1 sequence (P08101 30-330): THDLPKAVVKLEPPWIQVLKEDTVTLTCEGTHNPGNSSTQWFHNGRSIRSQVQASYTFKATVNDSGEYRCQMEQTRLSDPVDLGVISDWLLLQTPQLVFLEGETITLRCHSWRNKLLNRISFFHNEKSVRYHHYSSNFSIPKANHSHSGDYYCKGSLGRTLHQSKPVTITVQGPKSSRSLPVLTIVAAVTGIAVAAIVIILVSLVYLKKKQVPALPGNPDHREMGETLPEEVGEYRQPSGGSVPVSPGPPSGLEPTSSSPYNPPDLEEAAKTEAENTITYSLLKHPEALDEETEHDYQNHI
Briefly: Biacore T200 binding of anti-mouse CTLA4 antibody to mouse FcgR. The settings on record: 1:1 binding RI = 0, 25° C., pH7.4. The procedure:
(§1) Anti-mouse CTLA4 antibody hUH02hUL01-mFa55 and control antibody hUH02hUL01-mIgG2a (the heavy chain variable region UH02 is SEQ ID NO: 28, the light chain variable region UL01 is SEQ ID NO: 29, the heavy chain constant region mIgG2a is SEQ ID NO: 32, and the light chain constant region mk1 is SEQ ID NO: 31) purified and prepared by the method of Reference Example 2-1 were analyzed for their antigen-antibody reactions with various mouse FcgRs (mFcgRI, II, III, and IV) using Biacore™ T200 (GE Healthcare). The running buffer used was 20 mmol/L ACES, 150 mmol/L NaCl, 0.05% (w/v) Tween®20 at pH7.4, and measurements were taken at 25° C. Protein A/G was immobilized onto a Sensor Chip CM7 by amine coupling. hUH02hUL01-mFa55 was captured onto the sensorchip, and then FcgR was allowed to interact as an analyte for 120 seconds, and change in the bound amount was observed. The running buffer was used for dilution of hUH02hUL01-mFa55. The measurement results were analyzed by curve fitting using the Biacore™ T200 Evaluation Software (GE Healthcare) to calculate the association rate constants ka (l/Ms) and the dissociation rate constants kd (l/s). From those values, the dissociation constants KD (M) were determined.
In general terms: SPR reads the build-up and loss of mass on a sensor chip optically.

A further assay addresses T2, mFcgRIII (Mus musculus, UniProt P08508).
T2 sequence (P08508 31-261): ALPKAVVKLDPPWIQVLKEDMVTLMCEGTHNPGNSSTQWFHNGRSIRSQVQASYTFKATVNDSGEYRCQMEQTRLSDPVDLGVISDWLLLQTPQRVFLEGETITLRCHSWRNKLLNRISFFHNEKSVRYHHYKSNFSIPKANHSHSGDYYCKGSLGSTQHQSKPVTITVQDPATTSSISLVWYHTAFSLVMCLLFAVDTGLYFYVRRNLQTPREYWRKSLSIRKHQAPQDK
The description is as above. The settings on record: 1.1 binding RI = 0, 25° C., pH7.4. The protocol: as §1

A further assay has as its target T3, mFcgRI (Mus musculus, UniProt P26151).
T3 sequence (P26151 25-404): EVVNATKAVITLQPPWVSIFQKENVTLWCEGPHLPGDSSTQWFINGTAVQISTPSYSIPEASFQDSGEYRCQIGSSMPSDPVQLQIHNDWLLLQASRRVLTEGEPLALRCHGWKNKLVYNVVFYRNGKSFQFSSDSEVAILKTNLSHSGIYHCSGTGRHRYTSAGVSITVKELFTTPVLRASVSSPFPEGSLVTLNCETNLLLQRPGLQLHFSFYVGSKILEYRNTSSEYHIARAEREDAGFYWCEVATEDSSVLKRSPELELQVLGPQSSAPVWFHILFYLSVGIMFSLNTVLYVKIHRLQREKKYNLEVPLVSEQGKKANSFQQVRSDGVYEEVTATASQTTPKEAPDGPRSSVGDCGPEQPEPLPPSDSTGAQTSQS
The assay is described as above. The settings on record: 1:1 binding RI = 0, 25° C., pH7.4. The procedure:
as §1

The next assay deals with T4, mFcgRIV (Mus musculus, UniProt A0A0B4J1G0).
T4 sequence (A0A0B4J1G0 21-249): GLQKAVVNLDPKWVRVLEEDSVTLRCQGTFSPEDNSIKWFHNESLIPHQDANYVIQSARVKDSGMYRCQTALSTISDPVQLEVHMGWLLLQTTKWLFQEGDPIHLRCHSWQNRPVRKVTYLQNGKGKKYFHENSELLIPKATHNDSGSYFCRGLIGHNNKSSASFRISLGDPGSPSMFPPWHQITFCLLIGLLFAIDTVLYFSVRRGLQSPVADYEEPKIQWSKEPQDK
Described as above. Particulars: 1:1 binding RI = 0, 25° C., pH7.4. The protocol:
as §1

Assay [1] concerns mouse CTLA4-expressing cells (CHO/mouse CTLA4 cells). Briefly: ADCC activity, chromium-release assay with mFcgR4-NK92 effector cells. Particulars: antibody 0, 0.04, 0.4, 4, 40 μg/ml, FIG. 5. The format is cell-based. An excerpt:
Whether anti-mouse CTLA4 antibody hUH02hUL01-mFa55 purified and prepared by the method of Reference Example 2-1 exerts ADCC activity on mouse CTLA4-expressing cells (mouse CTLA4-expressing cells were produced by a method known to those skilled in the art by introducing the full length mouse CTLA4 gene into CHO cells) was examined according to the method of Reference Example 11.
Regarding anti-mouse CTLA4 antibodies, antibody concentration-dependent ADCC activities of test antibodies were measured, using the mouse FcgR4-expressing human NK cell line NK-92 (hereinafter referred to as mFcgR4-NK92) as effector cells by following the method described below.
After washing mFcgR4-NK92 with RPMI-1640 (nacalai tesque) containing 10% FBS (hereinafter referred to as 10% FBS/RPMI), the cells were suspended in 10% FBS/RPMI at a cell density of 4×10^5 cells/ml. […]
The ADCC activities were evaluated from the specific chromium release rate according to the chromium release method. […] The radioactivity of 100 μl of culture supernatant in each well of the plate was measured using a gamma counter. The specific chromium release rate was determined based on the following equation. […] The examinations were performed in duplicate and the mean value for the specific chromium release rate (%) of the test antibody was calculated.

For `Nc1ccn([C@@H]2O[C@H](CO)[C@@H](O)C2(F)F)c(=O)n1` [gemcitabine], the “tumor volume vs. the PBS-administered group (Tukey multiple comparison test)” value with CT26.WT cells is recorded as “significant differences (p<0.05)”.

B1: hUH02hUL01-mFa55: anti-mouse CTLA4 antibody, mouse IgG2a/kappa, constant region mFa55 modified to enhance binding to mouse FcγR (ADCC-enhanced) (antibody)
heavy: QVQLQESGPGLVKPSETLSLTCTVSGYSISSGYGWNWIRQPPGKGLEWIGFIYYEGSTYYNPSIKSRISITRDTSKNQFFLQVNSVTTEDTATYYCARQTGYFDYWGQGTLVTVSSAKTTAPSVYPLAPVCGDTTGSSVTLGCLVKGYFPEPVTLTWNSGSLSSGVHTFPAVLQSDLYTLSSSVTVTSSTWPSQSITCNVAHPASSTKVDKKIEPRGPTIKPCPPCKCPAPNLLGGPDVFIFPPKIKDVLMISLSPIVTCVVVDVSEDDPDVQISWFVNNVEVHTAQTQTHREDYNSTLRVVSALPIQHQDWMSGKEFKCKVNNKDLPAPIERTISKPKGSVRAPQVYVLPPPEEEMTKKQVTLTCMVTDFMPEDIYVEWTNNGKTELNYKNTEPVLDSDGSYFMYSKLRVEKKNWVERNSYSCSVVHEGLHNHHTTKSFSRTPGK
light: DIVMTQSPDSLAVSLGERATINCKSSQSLFNSNAKTNYLNWYQQKPGQPPKLLIYYASTRHTGVPDRFSGSGSGTDFTLTISSLQAEDVAVYYCQQWYDYPYTFGAGTKVEIKRADAAPTVSIFPPSSEQLTSGGASVVCFLNNFYPKDINVKWKIDGSERQNGVLNSWTDQDSKDSTYSMSSTLTLTKDEYERHNSYTCEATHKTSTSPIVKSFNRNEC
Turning to B1, the ka with mFcgRII was determined as 2.1e+06 M⁻¹ s⁻¹; in the assay with mFcgRIII, 2.4e+06 M⁻¹ s⁻¹; with mFcgRI it was 1.2e+06 M⁻¹ s⁻¹; with mFcgRIV, 1.5e+06 M⁻¹ s⁻¹. The kd amounted to 0.76 s⁻¹ in the assay with mFcgRII, 0.62 s⁻¹ in the assay with mFcgRIII, 0.0031 s⁻¹ in the assay with mFcgRI and 0.0028 s⁻¹ in the assay with mFcgRIV. Moreover, in assay [1], the “ADCC activity (specific chromium release rate)” value was “ADCC activity in an antibody concentration-dependent manner”.
